Experimental data as given in patent US20150344540A1, “NOVEL GLP-1 RECEPTOR AGONISTS WITH CHOLESTEROL EFFLUX ACTIVITY” (NOVO NORDISK A/S, priority 2012, published 2015).
Substitutions are numbered along the chain they refer to. Where no end group is shown, it is not given here. [ ]: non-standard residue; d: D form. Aib = CC(C)(N)C(=O)O

B1: [Aib8,Glu23,Val25,Glu34,Lys35,Val36,Lys37]-GLP-1-(7-37)-peptidyl-Glu-Leu-Leu amide (peptide)
peptide: H[Aib]EGTFTSDVSSYLEGEAVKEFIAWLVEKVKELL-NH2
modifications: N-terminus assumed
SMILES: CC[C@H](C)[C@H](NC(=O)[C@H](Cc1ccccc1)NC(=O)[C@H](CCC(=O)O)NC(=O)[C@H](CCCCN)NC(=O)[C@@H](NC(=O)[C@H](C)NC(=O)[C@H](CCC(=O)O)NC(=O)CNC(=O)[C@H](CCC(=O)O)NC(=O)[C@H](CC(C)C)NC(=O)[C@H](Cc1ccc(O)cc1)NC(=O)[C@H](CO)NC(=O)[C@H](CO)NC(=O)[C@@H](NC(=O)[C@H](CC(=O)O)NC(=O)[C@H](CO)NC(=O)[C@@H](NC(=O)[C@H](Cc1ccccc1)NC(=O)[C@@H](NC(=O)CNC(=O)[C@H](CCC(=O)O)NC(=O)C(C)(C)NC(=O)[C@@H](N)Cc1c[nH]cn1)[C@@H](C)O)[C@@H](C)O)C(C)C)C(C)C)C(=O)N[C@@H](C)C(=O)N[C@@H](Cc1c[nH]c2ccccc12)C(=O)N[C@@H](CC(C)C)C(=O)N[C@H](C(=O)N[C@@H](CCC(=O)O)C(=O)N[C@@H](CCCCN)C(=O)N[C@H](C(=O)N[C@@H](CCCCN)C(=O)N[C@@H](CCC(=O)O)C(=O)N[C@@H](CC(C)C)C(=O)N[C@@H](CC(C)C)C(N)=O)C(C)C)C(C)C
B2: [Aib8,Glu23,Val25,Glu34,Lys35,Val36,Lys37]-GLP-1-(7-37)-peptidyl-Glu-Val-Leu amide (peptide)
peptide: H[Aib]EGTFTSDVSSYLEGEAVKEFIAWLVEKVKEVL-NH2
modifications: N-terminus assumed
SMILES: CC[C@H](C)[C@H](NC(=O)[C@H](Cc1ccccc1)NC(=O)[C@H](CCC(=O)O)NC(=O)[C@H](CCCCN)NC(=O)[C@@H](NC(=O)[C@H](C)NC(=O)[C@H](CCC(=O)O)NC(=O)CNC(=O)[C@H](CCC(=O)O)NC(=O)[C@H](CC(C)C)NC(=O)[C@H](Cc1ccc(O)cc1)NC(=O)[C@H](CO)NC(=O)[C@H](CO)NC(=O)[C@@H](NC(=O)[C@H](CC(=O)O)NC(=O)[C@H](CO)NC(=O)[C@@H](NC(=O)[C@H](Cc1ccccc1)NC(=O)[C@@H](NC(=O)CNC(=O)[C@H](CCC(=O)O)NC(=O)C(C)(C)NC(=O)[C@@H](N)Cc1c[nH]cn1)[C@@H](C)O)[C@@H](C)O)C(C)C)C(C)C)C(=O)N[C@@H](C)C(=O)N[C@@H](Cc1c[nH]c2ccccc12)C(=O)N[C@@H](CC(C)C)C(=O)N[C@H](C(=O)N[C@@H](CCC(=O)O)C(=O)N[C@@H](CCCCN)C(=O)N[C@H](C(=O)N[C@@H](CCCCN)C(=O)N[C@@H](CCC(=O)O)C(=O)N[C@H](C(=O)N[C@@H](CC(C)C)C(N)=O)C(C)C)C(C)C)C(C)C
B3: [Aib8,Glu23,Val25,Glu34,Lys35,Val36,Lys37]-GLP-1-(7-37)-peptidyl-Glu-Phe-Phe amide (peptide)
peptide: H[Aib]EGTFTSDVSSYLEGEAVKEFIAWLVEKVKEFF-NH2
modifications: N-terminus assumed
SMILES: CC[C@H](C)[C@H](NC(=O)[C@H](Cc1ccccc1)NC(=O)[C@H](CCC(=O)O)NC(=O)[C@H](CCCCN)NC(=O)[C@@H](NC(=O)[C@H](C)NC(=O)[C@H](CCC(=O)O)NC(=O)CNC(=O)[C@H](CCC(=O)O)NC(=O)[C@H](CC(C)C)NC(=O)[C@H](Cc1ccc(O)cc1)NC(=O)[C@H](CO)NC(=O)[C@H](CO)NC(=O)[C@@H](NC(=O)[C@H](CC(=O)O)NC(=O)[C@H](CO)NC(=O)[C@@H](NC(=O)[C@H](Cc1ccccc1)NC(=O)[C@@H](NC(=O)CNC(=O)[C@H](CCC(=O)O)NC(=O)C(C)(C)NC(=O)[C@@H](N)Cc1c[nH]cn1)[C@@H](C)O)[C@@H](C)O)C(C)C)C(C)C)C(=O)N[C@@H](C)C(=O)N[C@@H](Cc1c[nH]c2ccccc12)C(=O)N[C@@H](CC(C)C)C(=O)N[C@H](C(=O)N[C@@H](CCC(=O)O)C(=O)N[C@@H](CCCCN)C(=O)N[C@H](C(=O)N[C@@H](CCCCN)C(=O)N[C@@H](CCC(=O)O)C(=O)N[C@@H](Cc1ccccc1)C(=O)N[C@@H](Cc1ccccc1)C(N)=O)C(C)C)C(C)C
B4: [Glu34,Lys35,Val36,Lys37]-GLP-1-(7-37)-peptidyl-Glu-Phe amide (peptide)
peptide: HAEGTFTSDVSSYLEGQAAKEFIAWLVEKVKEF-NH2
B5: [Glu23,Val25,Glu34,Lys35,Val36,Lys37]-GLP-1-(7-37)-peptidyl-Glu-Phe-Leu-Glu-Lys (peptide)
peptide: HAEGTFTSDVSSYLEGEAVKEFIAWLVEKVKEFLEK
B6: [Glu34,Lys35,Val36,Lys37]-GLP-1-(7-37)-peptidyl-Glu-Phe-Leu-Glu-Lys (peptide)
peptide: B5 peptide with E17Q, V19A
B7: [Aib8,Glu23,Val25,Aib36,Lys37]-des-Lys34-GLP-1-(7-37)-peptidyl-Glu-Phe-Leu amide (peptide)
peptide: H[Aib]EGTFTSDVSSYLEGEAVKEFIAWLVG[Aib]KEFL-NH2
modifications: N-terminus assumed
SMILES: CC[C@H](C)[C@H](NC(=O)[C@H](Cc1ccccc1)NC(=O)[C@H](CCC(=O)O)NC(=O)[C@H](CCCCN)NC(=O)[C@@H](NC(=O)[C@H](C)NC(=O)[C@H](CCC(=O)O)NC(=O)CNC(=O)[C@H](CCC(=O)O)NC(=O)[C@H](CC(C)C)NC(=O)[C@H](Cc1ccc(O)cc1)NC(=O)[C@H](CO)NC(=O)[C@H](CO)NC(=O)[C@@H](NC(=O)[C@H](CC(=O)O)NC(=O)[C@H](CO)NC(=O)[C@@H](NC(=O)[C@H](Cc1ccccc1)NC(=O)[C@@H](NC(=O)CNC(=O)[C@H](CCC(=O)O)NC(=O)C(C)(C)NC(=O)[C@@H](N)Cc1c[nH]cn1)[C@@H](C)O)[C@@H](C)O)C(C)C)C(C)C)C(=O)N[C@@H](C)C(=O)N[C@@H](Cc1c[nH]c2ccccc12)C(=O)N[C@@H](CC(C)C)C(=O)N[C@H](C(=O)NCC(=O)NC(C)(C)C(=O)N[C@@H](CCCCN)C(=O)N[C@@H](CCC(=O)O)C(=O)N[C@@H](Cc1ccccc1)C(=O)N[C@@H](CC(C)C)C(N)=O)C(C)C
B8: [Glu34,Val36,Lys37]-GLP-1-(7-37)-peptidyl-Glu-Phe-Leu-Glu-Lys (peptide)
peptide: B5 peptide with E17Q, V19A, K29G
B9: [Glu34,Lys35,Val36]-GLP-1-(7-37)-peptidyl-Glu-Phe-Leu-Glu-Lys (peptide)
peptide: H-HAEGTFTSDVSSYLEGQAAKEFIAWLVEKVGEFLEK
B10: [Glu34,Lys35,Val36,Lys37]-GLP-1-(7-37)-peptidyl-Glu-Phe-Leu-Asp-Lys (peptide)
peptide: B5 peptide with E17Q, V19A, E35D
B11: [Glu34,Lys35,Val36,Lys37]-GLP-1-(7-37)-peptidyl-Glu-Phe-Leu-Glu-Arg (peptide)
peptide: B5 peptide with E17Q, V19A, K36R
B12: [Glu34,Lys35,Val36,Lys37]-GLP-1-(7-37)-peptidyl-Glu-Phe-Tyr amide (peptide)
peptide: HAEGTFTSDVSSYLEGQAAKEFIAWLVEKVKEFY-NH2
B13: [Glu22,Glu23,Val25,Glu34,Lys35,Val36,Lys37]-GLP-1-(7-37)-peptidyl-Glu-Phe amide (peptide)
peptide: HAEGTFTSDVSSYLEEEAVKEFIAWLVEKVKEF-NH2
B14: [Gly8,Glu22,Glu23,Val25,Glu34,Lys35,Val36,Lys37]-GLP-1-(7-37)-peptidyl-Glu-Phe amide (peptide)
peptide: HGEGTFTSDVSSYLEEEAVKEFIAWLVEKVKEF-NH2
B15: [Aib8,Glu22,Glu23,Val25,Glu34,Lys35,Val36,Lys37]-GLP-1-(7-37)-peptidyl-Glu-Phe amide (peptide)
peptide: H[Aib]EGTFTSDVSSYLEEEAVKEFIAWLVEKVKEF-NH2
B16: [Glu22,Glu23,Val25,Glu34,Lys35,Val36,Lys37]-GLP-1-(7-37)-peptidyl-Glu-Phe-Leu amide (peptide)
peptide: HAEGTFTSDVSSYLEEEAVKEFIAWLVEKVKEFL-NH2
B17: [Gly8,Glu22,Glu23,Val25,Glu34,Lys35,Val36,Lys37]-GLP-1-(7-37)-peptidyl-Glu-Phe-Leu amide (peptide)
peptide: HGEGTFTSDVSSYLEEEAVKEFIAWLVEKVKEFL-NH2
B18: [Aib8,Glu23,Val25,Glu34,Lys35,Aib36,Lys37]-GLP-1-(7-37)-peptide amide (peptide)
peptide: H[Aib]EGTFTSDVSSYLEGEAVKEFIAWLVEK[Aib]K-NH2
modifications: N-terminus assumed
SMILES: CC[C@H](C)[C@H](NC(=O)[C@H](Cc1ccccc1)NC(=O)[C@H](CCC(=O)O)NC(=O)[C@H](CCCCN)NC(=O)[C@@H](NC(=O)[C@H](C)NC(=O)[C@H](CCC(=O)O)NC(=O)CNC(=O)[C@H](CCC(=O)O)NC(=O)[C@H](CC(C)C)NC(=O)[C@H](Cc1ccc(O)cc1)NC(=O)[C@H](CO)NC(=O)[C@H](CO)NC(=O)[C@@H](NC(=O)[C@H](CC(=O)O)NC(=O)[C@H](CO)NC(=O)[C@@H](NC(=O)[C@H](Cc1ccccc1)NC(=O)[C@@H](NC(=O)CNC(=O)[C@H](CCC(=O)O)NC(=O)C(C)(C)NC(=O)[C@@H](N)Cc1c[nH]cn1)[C@@H](C)O)[C@@H](C)O)C(C)C)C(C)C)C(=O)N[C@@H](C)C(=O)N[C@@H](Cc1c[nH]c2ccccc12)C(=O)N[C@@H](CC(C)C)C(=O)N[C@H](C(=O)N[C@@H](CCC(=O)O)C(=O)N[C@@H](CCCCN)C(=O)NC(C)(C)C(=O)N[C@@H](CCCCN)C(N)=O)C(C)C
B19: [Aib8,Glu22,Glu23,Val25,Glu34,Lys35,Val36,Lys37]-GLP-1-(7-37)-peptidyl-Glu-Phe-Leu amide (peptide)
peptide: H[Aib]EGTFTSDVSSYLEEEAVKEFIAWLVEKVKEFL-NH2
modifications: N-terminus assumed
SMILES: CC[C@H](C)[C@H](NC(=O)[C@H](Cc1ccccc1)NC(=O)[C@H](CCC(=O)O)NC(=O)[C@H](CCCCN)NC(=O)[C@@H](NC(=O)[C@H](C)NC(=O)[C@H](CCC(=O)O)NC(=O)[C@H](CCC(=O)O)NC(=O)[C@H](CCC(=O)O)NC(=O)[C@H](CC(C)C)NC(=O)[C@H](Cc1ccc(O)cc1)NC(=O)[C@H](CO)NC(=O)[C@H](CO)NC(=O)[C@@H](NC(=O)[C@H](CC(=O)O)NC(=O)[C@H](CO)NC(=O)[C@@H](NC(=O)[C@H](Cc1ccccc1)NC(=O)[C@@H](NC(=O)CNC(=O)[C@H](CCC(=O)O)NC(=O)C(C)(C)NC(=O)[C@@H](N)Cc1c[nH]cn1)[C@@H](C)O)[C@@H](C)O)C(C)C)C(C)C)C(=O)N[C@@H](C)C(=O)N[C@@H](Cc1c[nH]c2ccccc12)C(=O)N[C@@H](CC(C)C)C(=O)N[C@H](C(=O)N[C@@H](CCC(=O)O)C(=O)N[C@@H](CCCCN)C(=O)N[C@H](C(=O)N[C@@H](CCCCN)C(=O)N[C@@H](CCC(=O)O)C(=O)N[C@@H](Cc1ccccc1)C(=O)N[C@@H](CC(C)C)C(N)=O)C(C)C)C(C)C

biological target: human GLP-1 receptor (human, UniProt P43220); experiment: cell-based or functional assay

Row | Binder | CRE luciferase EC50, 0% HSA [nM] | CRE luciferase EC50, 1% HSA [nM]
1 | B1 | 0.489 | 0.303
2 | B2 | 0.198 | 0.065
3 | B3 | 0.525 | 0.372
4 | B4 | 0.016 | 0.005
5 | B5 | 0.098 | 0.031
6 | B6 | 0.03 | 0.011
7 | B7 | 0.01 | 0.004
8 | B8 | 0.085 | 0.023
9 | B9 | 0.041 | 0.013
10 | B10 | 0.045 | 0.012
11 | B11 | 0.034 | 0.011
12 | B12 | 0.037 | 0.014
13 | B13 | 0.02 | 0.01
14 | B14 | 0.104 | 0.027
15 | B15 | 0.029 | 0.012
16 | B16 | 0.299 | 0.114
17 | B17 | 0.974 | 0.302
18 | B18 | 0.015 | 0.004
19 | B19 | 0.116 | 0.034
